From patent publication US12606852B2, “Conversion of lignin-derived monomers to muconate by engineered pseudomonas” (Alliance for Sustainable Energy, LLC, priority 2021, dated 2026)
Values joined by “and” are separate entries in the source; they are usually repeats but may differ in a detail not shown here. Identical values can stand only once.

What was measured:
Assay in all cases: purified protein, by the assay type
[1] = substrate: NC(=O)C1=CN([C@@H]2O[C@H](COP(=O)(O)OP(=O)(O)OC[C@H]3O[C@@H](n4cnc5c(N)ncnc54)[C@H](O)[C@@H]3O)[C@@H](O)[C@H]2O)C=CC1; conditions: pH 8.0; 25.0 °C
[2] = substrate: NC(=O)C1=CN([C@@H]2O[C@H](COP(=O)(O)OP(=O)(O)OC[C@H]3O[C@@H](n4cnc5c(N)ncnc54)[C@H](OP(=O)(O)O)[C@@H]3O)[C@@H](O)[C@H]2O)C=CC1
[3] = substrate: O=C(O)c1ccc(O)cc1

Protein | Km [1] | Km ([2]; pH 8.0, 25.0 °C) | Km ([3]; pH 8.0, 25.0 °C) | Km ([2]; other: NADPH varied, NADPH detection (340 nm), air-saturated, 200 μM 4-hydroxybenzoate, pH 8, 25° C.) | Km ([2]; other: NADPH varied, O2 detection (oxygraph), air-saturated, 200 μM 4-hydroxybenzoate, pH 8, 25° C.) | Km ([3]; other: NADPH as reducing equivalent, NADPH detection (340 nm), air-saturated, 300 μM NAD(P)H, pH 8, 25° C.) | Km ([3]; other: NADPH as reducing equivalent, O2 detection (oxygraph), air-saturated, 300 μM NAD(P)H, pH 8, 25° C.)
Paenibacillus sp. JJ-1b PraI (para-hydroxybenzoate-3-hydroxylase, PHBH), BAH79107, tagless, praI_EC gene SEQ ID NO: 3 (Paenibacillus sp.) (protein) RTQVGIIGAGPAGLLLSHLLYLQGIESIIIENRTREEIEGTIRAGVLEQGTVDLMNQMGVGARMMKEGHFHEGFELRFNGRGHRINVHELTGGKYVTVYAQHEVIKDLVAARLQTGGQIHFNVGDVSLHDVDTSSPKIRFRPNKDGELQEIECDFIAGCDGFRGPSRPAIPQSVRKEYQKVYPFSWLGILVEAPPSAHELIYANHERGFALVSTRSPQIQRLYLQVDAQDHIDNWSDDRIWSELHARLETRDGFKLLEGPIFQKGIVSMRSFVCDPMQHGRLFLAGDAAHIVPPTGAKGLNLAAADVQVLARGLEAYYKAGKMEILNRCTEICLRRIWKAERFSWFMTTMLHRDQGHTPFERGIQLAELDYVTSSRAASTSLAENYIGLPMEF | 49 ± 3 µM and 46 ± 4 µM | 27 ± 1 µM and 33 ± 2 µM | 16 ± 1 µM and 19 ± 2 µM and 18 ± 1 µM | – | – | – | –
Pseudomonas putida KT2440 PobA (para-hydroxybenzoate-3-hydroxylase, PHBH), native, PP_3537, tagless, pobA_EC gene SEQ ID NO: 1 (Pseudomonas putida KT2440) (protein) MKTQVAIIGAGPSGLLLGQLLHKAGIDNIIVERQTAEYVLGRIRAGVLEQGTVDLLREAGVAERMDREGLVHEGVELLVGGRRQRLDLKALTGGKTVMVYGQTEVTRDLMQAREASGAPIIYSAANVQPHELKGEKPYLTFEKDGRVQRIDCDYIAGCDGFHGISRQSIPEGVLKQYERVYPFGWLGLLSDTPPVNHELIYAHHERGFALCSQRSQTRSRYYLQVPLQDRVEEWSDERFWDELKARLPAEVAADLVTGPALEKSIAPLRSLVVEPMQYGHLFLVGDAAHIVPPTGAKGLNLAASDVNYLYRILVKVYHEGRVDLLAQYSPLALRRVWKGERFSWFMTQLLHDFGSHKDAWDQKMQEADREYFLTSPAGLVNIAENYVGLPFEEVA | – | – | – | 43 ± 3 µM | 66 ± 6 µM | 18 ± 2 µM | 21 ± 1 µM
